Assay results reported in patent US20190185581A1 (University of California, published 2019).

Experiments:
[1] = molecular target: T1, catalytic domain of MMP-14 (cdMMP-14) (human, UniProt P50281 114-287, limits assumed, biotinylated (Sulfo-NHS-LC-Biotin) where immobilised via streptavidin); assay: cell-based or functional assay
[2] = molecular target: T1, catalytic domain of MMP-14 (cdMMP-14); assay: ELISA, Fab titrated on immobilised biotin-cdMMP-14, anti-Fab-HRP
[3] = molecular target: T1, catalytic domain of MMP-14 (cdMMP-14); assay: ELISA, Fab titrated on immobilised MMP-14 catalytic domain, anti-Fab-HRP
Description: Bound Fabs were detected using the anti-Fab-HRP conjugate. The half-maximal effective concentration (EC₅₀) was calculated from a four-parametric logistic curve-fitting analysis.

Binder	Inhibition potency (FRET IC50) [1] [nM]	EC50 [2] [nM]	EC50 [3] [nM]
Fab R2C4 (Fab, V domains shown) VH: EVQLVESGGGLVQPGGSLRLSCAASGFNLSYYYMHWVRQAPGKGLEWVAYISSYSGYTYYADSVKGRFTISADTSKNTAYLQMNSLRAEDTAVYYCARGWRVYADRGHVRGYFRVWYGMDYWGQGTLVTVSS VL: DIQMTQSPSSLSASVGDRVTITCRASQSVSSAVAWYQQKPGKAPKLLIYSASSLYSGVPSRFSGSRSGTDFTLTISSLQPEDFATYYCQQGAGLITFGQGTKVEIKR	1500	10000	
Fab R2C6 (Fab, V domains shown) VH: EVQLVESGGGLVQPGGSLRLSCAASGFNIYYSSMHWVRQAPGKGLEWVAYISPYYGYTSYADSVKGRFTISADTSKNTAYLQMNSLRAEDTAVYYCARKDLLKTNRLTTRYKKSVSVGYGMDYWGQGTLVTVSS VL: DIQMTQSPSSLSASVGDRVTITCRASQSVSSAVAWYQQKPGKAPKLLIYSASSLYSGVPSRFSGSRSGTDFTLTISSLQPEDFATYYCQQYVYPPFTFGQGTKVEIKR	2400	2400	
Fab R2C8 (Fab, V domains shown) VH: EVQLVESGGGLVQPGGSLRLSCAASGFNISSSSIHWVRQAPGKGLEWVASIYPYYGSTSYADSVKGRFTISADTSKNTAYLQMNSLRAEDTAVYYCARPGRHLQTTFKGYQFKYSRYIYAMDYWGQGTLVTVSS VL: DIQMTQSPSSLSASVGDRVTITCRASQSVSSAVAWYQQKPGKAPKLLIYSASSLYSGVPSRFSGSRSGTDFTLTISSLQPEDFATYYCQQWGHHGYLITFGQGTKVEIKR	1200	1200	
Fab R2C9 (Fab, V domains shown) VH: EVQLVESGGGLVQPGGSLRLSCAASGFNIYSYSMHWVRQAPGKGLEWVAYIYPYSGYTYYADSVKGRFTISADTSKNTAYLQMNSLRAEDTAVYYCARVLNIFMDVGAARFPGLVRYGMDYWGQGTLVTVSS VL: DIQMTQSPSSLSASVGDRVTITCRAGQDVSSAVAWYQQKPGKAPKLLIYSASTLHSGVPSRFSGSRSGTDFTLTISSLQPEDFATYYCQQSGPYSLFTFGQGTKVEIKR	80	657	
Fab R2C11 (Fab, V domains shown) VH: EVQLVESGGGLVQPGGSLRLSCAASGFNLYYSSIHWVRQAPGKGLEWVAYIYPSYSYTYYADSVKGRFTISADTSKNTAYLQMNSLRAEDTAVYYCARRYGSDVFCVGCFFGVRLSYVMDYWGQGTLVTVSS VL: DIQMTQSPSSLSASVGDRVTITCRASQSVSSAVAWYQQKPGKAPKLLIYSASSLYSGVPSRFSGSRSGTDFTLTISSLQPEDFATYYCQQYVSSGSLITFGQGTKVEIKR	600	750	
Fab R2C12 (Fab, V domains shown) VH: EVQLVESGGGLVQPGGSLRLSCAASGFNISSSYMHWVRQAPGKGLEWVASIYSYSSYTYYADSVKGRFTISADTSKNTAYLQMNSLRAEDTAVYYCARSDSWVQGRDFCYYSAWVGYGMDYWGQGTLVTVSS VL: DIQMTQSPSSLSASVGDRVTITCRASQSVSSAVAWYQQKPGKAPKLLIYSASSLYSGVPSRFSGSRSGTDFTLTISSLQPEDFATYYCQQGYYALFTFGQGTKVEIKR	150	150	
Fab R2C16 (Fab, V domains shown) VH: EVQLVESGGGLVQPGGSLRLSCAASGFNIYSYSMHWVRQAPGKGLEWVASISSYYGYTYYADSVKGRFTISADTSKNTAYLQMNSLRAEDTAVYYCARFKNADFAAGGQWSKMLIARMYAMDYWGQGTLVTVSS VL: DIQMTQSPSSLSASVGDRVTITCRASQSVSSAVAWYQQKPGKAPKLLIYSASSLYSGVPSRFSGSRSGTDFTLTISSLQPEDFATYYCQQYYSLITFGQGTKVEIKR	5500	1800	
Fab R2C22 (Fab, V domains shown) VH: EVQLVESGGGLVQPGGSLRLSCAASGFNIYSSYMHWVRQAPGKGLEWVASIYSSYGSTYYADSVKGRFTISADTSKNTAYLQMNSLRAEDTAVYYCARHSRDGWQHWFGNWAGLHSYGMDYWGQGTLVTVSS VL: DIQMTQSPSSLSASVGDRVTITCRASQSVSSAVAWYQQKPGKAPKLLIYSASSLYSGVPSRFSGSRSGTDFTLTISSLQPEDFATYYCQQYYHYGYYLITFGQGTKVEIKR	75	540	
Fab R3C8 (Fab, V domains shown) VH: EVQLVESGGGLVQPGGSLRLSCAASGFNFSSSSIHWVRQAPGKGLEWVASIYPSYSYTYYADSVKGRFTISADTSKNTAYLQMNSLRAEDTAVYYCARHCLLRSRRCEMSTKTRELNVYRYAMDYWGQGTLVTVSS VL: DIQMTQSPSSLSASVGDRVTITCRASQSVSSAVAWYQQKPGKAPKLLIYSASSLYSGVPSRFSGSRSGTDFTLTISSLQPEDFATYYCQQWPVGSSYPITFGQGTKVEIKR	5400	1300	
Fab R3C10 (Fab, V domains shown) VH: EVQLVESGGGLVQPGGSLRLSCAASGFNIYYSSMHWVRQAPGKGLEWVASISPYYGYTYYADSVKGRFTISADTSKNTAYLQMNSLRAEDTAVYYCARGSLRRDFNLVVRSSWDIRSNYVMDYWGQGTLVTVSS VL: DIQMTQSPSSLSASVGDRVTITCRASQSVSSAVAWYQQKPGKAPKLLIYSASSLYSGVPSRFSGSRSGTDFTLTISSLQPEDFATYYCQQSWPYPITFGQGTKVEIKR	1000	970	
Fab R3C13 (Fab, V domains shown) VH: EVQLVESGGGLVQPGGSLRLSCAASGFNIYYSYMHWVRQAPGKGLEWVASISSYSGSTSYADSVKGRFTISADTSKNTAYLQMNSLRAEDTAVYYCARWLRVSLKSGVYKVLARAVELDEYVMDYWGQGTLVTVSS VL: DIQMTQSPSSLSASVGDRVTITCRASQSVSSAVAWYQQKPGKAPKLLIYSASSLYSGVPSRFSGSRSGTDFTLTISSLQPEDFATYYCQQSGYYAWPITFGQGTKVEIKR	2000	2000	
Fab R3C15 (Fab, V domains shown) VH: EVQLVESGGGLVQPGGSLRLSCAASGFNISYSYMHWVRQAPGKGLEWVASISPYSGYTYYADSVKGRFTISADTSKNTAYLQMNSLRAEDTAVYYCARGVRGNKLRLLSSRSGRMESHYVMDYWGQGTLVTVSS VL: DIQMTQSPSSLSASVGDRVTITCRASQSVSSAVAWYQQKPGKAPKLLIYSASSLYSGVPSRFSGSRSGTDFTLTISSLQPEDFATYYCQQAGSLFTFGQGTKVEIKR	170	57.5	
Fab 2H9 (Fab, V domains shown, not shown: His tag at the C-terminus of the heavy chain) VH: EVQLVESGGGLVQPGGSLRLSCAASGFNIYYSSMHWVRQAPGKGLEWVASIYPYSGYTYYADSVKGRFTISADTSKNTAYLQMNSLRAEDTAVYYCARGTSFQVRCVLYRLLSPGRYVMDYWGQGTLVTVSS VL: DIQMTQSPSSLSASVGDRVTITCRASQSVSSAVAWYQQKPGKAPKLLIYSASSLYSGVPSRFSGSRSGTDFTLTISSLQPEDFATYYCQQSGYSYPFTFGQGTKVEIKR			120
Fab 2E4 (Fab, V domains shown, not shown: His tag at the C-terminus of the heavy chain) VH: EVQLVESGGGLVQPGGSLRLSCAASGFNLSYSYIHWVRQAPGKGLEWVAYISSSSGYTYYADSVKGRFTISADTSKNTAYLQMNSLRAEDTAVYYCARSARLRLRGNHDRRRSKSVYYRPYVMDYWGQGTLVTVSS VL: DIQMTQSPSSLSASVGDRVTITCRASQSVSSAVAWYQQKPGKAPKLLIYSASSLYSGVPSRFSGSRSGTDFTLTISSLQPEDFATYYCQQSSPSFPITFGQGTKVEIKR			840
